Data set [1] deals with von Willebrand factor full length (Homo sapiens, UniProt P04275 SEQ:764-2813). The experiment in a line: filter; 20 nM protein. The following applies: tags: Calbiochem 681300. The protocol: When a significant positive ratio of binding of DNA in the presence of human or rabbit vWF A1 domain versus in the absence of protein was seen, the pools were cloned using the TOPO TA cloning kit (Invitrogen Cat.# 45-0641, Carlsbad, Calif.) according to the manufacturer's instructions. […] All unique clones were assayed twice in a 3-point dot blot screen (no protein target control, 20 nM full length human vWF (Calbiochem Cat.# 681300, La Jolla, Calif.), or 20 nM rabbit vWF A1 domain. The data is presented in the third and fourth columns of Table 17 below as the ratio of the fraction of the aptamer bound to the nitrocellulose in the presence of the target protein to the fraction of aptamer bound in the absence of the target protein.

In data set [2] the target is von Willebrand factor A1 domain (human) (Homo sapiens, UniProt P04275 SEQ:13-246). The experiment in a line: filter; 100 nM protein. Here is the method: All unique clones were assayed in a 3-point dot blot screen (no protein target control, 100 nM human vWF A1 domain (SEQ ID NO 5), or 100 nM rabbit vWF A1 domain (SEQ ID NO 6). The data are presented in the third and fourth columns of Table 14 below as the ratio of the fraction of the aptamer bound to the nitrocellulose in the presence of the target protein to the fraction of aptamer bound in the absence of the target protein.

Positions count from the first letter of the chain named.

Our source for the binding signal values is patent US20060264369, “Aptamers to von Willebrand Factor and their use as thrombotic disease therapeutics” (published 2006).

B1: AMX238.G4 (ssDNA)
DNA: CTACCTACGATCTGACTAGCTTGTCGCACTTTTGGTTGGTCTGGTTGGTTCTAAGTGCGCTTACTCTCATGTAGTTCC
As to B1, in data set [1], the binding signal is 1.09 ratio to no protein.

B2: AMX237.F9 (ssDNA)
DNA: CTACCTACGATCTGACTAGCTTGGTAGCGATTCTGTGGAGCTGCGGTTTGGTCGACGTCAGCTTACTCTCATGTAGTTCC
In the case of B2, in data set [1], the binding signal was 2.21 ratio to no protein.

B3: AMX237.C9 (ssDNA)
DNA: B2 DNA with C28T, T31C, C33T
Take B3: the binding signal in data set [1] is 2.05 ratio to no protein.

B4: AMX237.F12 (ssDNA)
DNA: B2 DNA with C33T
For B4, in data set [1], the binding signal was 1.95 ratio to no protein.

B5: AMX236.A12 (ssDNA)
DNA: B2 DNA with T31C
For B5, the binding signal in data set [1] was 2.64 ratio to no protein.

B6: AMX236.A11 (ssDNA)
DNA: B2 DNA with T31C, T48C, T52C
Regarding B6, in data set [1], the binding signal is 2.02 ratio to no protein.

B7: AMX236.C12 (ssDNA)
DNA: B2 DNA with T31C, T34C
As to B7, the binding signal in data set [1] was 1.99 ratio to no protein.

B8: AMX236.B8 (ssDNA)
DNA: B2 DNA with T31C, T48C
As for B8, in data set [1], the binding signal was 1.66 ratio to no protein.

B9: AMX237.H10 (ssDNA)
DNA: B2 DNA with T31C, T34A, T36A
For B9, in data set [1], the binding signal was 1.71 ratio to no protein.

B10: AMX236.G4 (ssDNA)
DNA: B2 DNA with T31C, C33T, C41A, C53T
B10: the binding signal in data set [1] was 1.7 ratio to no protein.

B11: AMX237.B1 (ssDNA)
DNA: B2 DNA with T31C, T32A, T34A
With B11, in data set [1], the binding signal is 2 ratio to no protein.

B12: AMX237.G7 (ssDNA)
DNA: B2 DNA with T31C, C33T
Take B12: the binding signal in data set [1] is 2.68 ratio to no protein.

B13: AMX237.D5 (ssDNA)
DNA: B2 DNA with T31C, T32A, C53T
For the molecule B13, the binding signal in data set [1] is 1.41 ratio to no protein.

B14: AMX237.F10 (ssDNA)
DNA: CTACCTACGATCTGACTAGCGTGCAGTGCCCATTCCAGGCCGTGCGGTATCCTCCGTCACGCTTACTCTCATGTAGTTCC
With B14, in data set [1], the binding signal was 2.9 ratio to no protein.

B15: AMX237.C5 (ssDNA)
DNA: B14 DNA with C31T, T34C, C35T
In the case of B15, the binding signal in data set [1] was 2.55 ratio to no protein.

B16: AMX236.H2 (ssDNA)
DNA: B14 DNA with C31T, T34C, T50G
Turning to B16, the binding signal in data set [1] was 2.12 ratio to no protein.

B17: AMX237.C4 (ssDNA)
DNA: CTACCTACGATCTGACTAGCTTTCAGTCTTCCACATTTATAGGGTTTGGCATTGGGTCTGGCTTACTCTCATGTAGTTCC
Turning to B17, the binding signal in data set [1] is 0.97 ratio to no protein.

B18: AMX237.F1 (ssDNA)
DNA: B17 DNA with A35G
With B18, in data set [1], the binding signal is 0.98 ratio to no protein.

B19: AMX238.H11 (ssDNA)
DNA: B17 DNA with C31T
Regarding B19, the binding signal in data set [1] was 0.98 ratio to no protein.

B20: AMX237.G2 (ssDNA)
DNA: B17 DNA with C31T, C34T
As for B20, the binding signal in data set [1] was 1.02 ratio to no protein.

B21: AMX237.F5 (ssDNA)
DNA: B17 DNA with C24T
On to B21, for which the binding signal in data set [1] is 0.99 ratio to no protein.

B22: AMX237.E5 (ssDNA)
DNA: B17 DNA with C32T
B22: the binding signal in data set [1] is 0.97 ratio to no protein.

B23: AMX238.E7 (ssDNA)
DNA: CTACCTACGATCTGACTAGCGTGCAGTGCCTATTTTAGGCCGTGCGGTGCCTCCGTCACGCTTACTCTCATGTAGTTCC
As for B23, the binding signal in data set [1] was 3.02 ratio to no protein.

B24: AMX238.F3 (ssDNA)
DNA: B23 DNA with C40T, T48G
For the molecule B24, in data set [1], the binding signal was 2.83 ratio to no protein.

B25: AMX238.F2 (ssDNA)
DNA: B23 DNA with G21A, T31C, T35C, C59T
For B25, the binding signal in data set [1] is 2.84 ratio to no protein.

B26: AMX237.C11 (ssDNA)
DNA: B23 DNA with T35C, C59T
For B26, in data set [1], the binding signal is 2.04 ratio to no protein.

B27: AMX236.B3 (ssDNA)
DNA: CTACCTACGATCTGACTAGCCTTACCTATTCCCTTCTGCGGAATACGTCGAGTACTATGCTTACTCTCATGTAGTTCC
Regarding B27, the binding signal in data set [1] is 1.54 ratio to no protein.

B28: AMX200.G11 (ssDNA)
DNA: CTACCTACGATCTGACTAGCGGAACGAGAATGCTGATGGATTGCTCAGGTCTGCTGGCTGCTTACTCTCATGTAGTTCC
For B28, the binding signal in data set [2] is 1.73 ratio to no protein.

B29: AMX200.B1 (ssDNA)
DNA: B28 DNA with C25T, T45C
For the molecule B29, the binding signal in data set [2] is 4.01 ratio to no protein.

B30: AMX200.A7 (ssDNA)
DNA: B28 DNA with C25T, C44T
Regarding B30, the binding signal in data set [2] is 0.97 ratio to no protein.

B31: AMX200.B8 (ssDNA)
DNA: B28 DNA with C25T, C33T, A36G
Consider B31, for which the binding signal in data set [2] was 4.13 ratio to no protein.

B32: AMX200.D8 (ssDNA)
DNA: B28 DNA with C25T, C33T
For B32, in data set [2], the binding signal is 2.86 ratio to no protein.

B33: AMX200.D11 (ssDNA)
DNA: B28 DNA with C25T, G26A
Regarding B33, the binding signal in data set [2] is 3.34 ratio to no protein.

B34: AMX200.B9 (ssDNA)
DNA: B28 DNA with C25T, G57A
Consider B34, for which the binding signal in data set [2] is 2.54 ratio to no protein.

B35: AMX237.E9 (ssDNA)
DNA: CTACCTACGATCTGACTAGCTCCAGTGTTTTGTCTAATAACCGTGCGGTGCCTCCGTGAGCTTACTCTCATGTAGTTCC
Regarding B35, the binding signal in data set [1] is 2.13 ratio to no protein.

B36: AMX237.B4 (ssDNA)
DNA: B35 DNA with T31C, G32A, T35C, C52T
Turning to B36, in data set [1], the binding signal was 1.42 ratio to no protein.

B37: AMX237.E2 (ssDNA)
DNA: B35 DNA with T31C, G32A
Regarding B37, the binding signal in data set [1] was 1.61 ratio to no protein.

B38: AMX237.H5 (ssDNA)
DNA: B35 DNA with T31C, G32A, C34T
Take B38: in data set [1], the binding signal is 1.63 ratio to no protein.

B39: AMX238.D5 (ssDNA)
DNA: B35 DNA with G32A, C34T, T35C, C51T
For the molecule B39, the binding signal in data set [1] is 1.46 ratio to no protein.

B40: AMX237.A11 (ssDNA)
DNA: B35 DNA with G32A, T35C
In the case of B40, in data set [1], the binding signal was 2.66 ratio to no protein.

B41: AMX238.D8 (ssDNA)
DNA: B35 DNA with G32A, T35C, T38C
As to B41, in data set [1], the binding signal was 2.02 ratio to no protein.

B42: AMX238.D12 (ssDNA)
DNA: B35 DNA with T31C, G32A, C34T, T35C
Take B42: the binding signal in data set [1] is 2.4 ratio to no protein.

B43: AMX238.G5 (ssDNA)
DNA: B35 DNA with G32A, C34T, T35C
Consider B43, for which the binding signal in data set [1] is 3.06 ratio to no protein.

B44: AMX237.A2 (ssDNA)
DNA: B35 DNA with T31C, G32A, T35C
Turning to B44, the binding signal in data set [1] was 2.6 ratio to no protein.

B45: AMX237.B11 (ssDNA)
DNA: B35 DNA with G32A
On to B45, for which, in data set [1], the binding signal was 2.87 ratio to no protein.

B46: AMX236.H1 (ssDNA)
DNA: CTACCTACGATCTGACTAGCCTCAGATTGACTCCGGCCGACTTGTTTTAATCTTCTGAGTGCTTACTCTCATGTAGTTCC
Regarding B46, the binding signal in data set [1] is 1.1 ratio to no protein.

B47: AMX236.G1 (ssDNA)
DNA: B46 DNA with C38T
On to B47, for which, in data set [1], the binding signal is 1.47 ratio to no protein.
